Source: PMC3518760 (Nature, 2012)
Substitutions are numbered along the chain they refer to. Names may count otherwise. Blank lines part the entries; values can stand above or below the molecule they belong to.

Assays:
[1] = target: mouse protocadherin-15 EC1+2 R113G (mouse) (UniProt Q99PJ1); assay: ITC
[2] = target: mouse protocadherin-15 EC1+2 I22A (mouse, UniProt Q99PJ1-18 27-259, I22A); assay: ITC
[3] = target: T1, mouse protocadherin-15 EC1+2 (mouse, UniProt Q99PJ1-18 27-259); assay: ITC
[4] = target: T1, mouse protocadherin-15 EC1+2; assay: crystal structure

Kd [1]: > 20 µM
Molecule: mouse cadherin-23 EC1+2 (from UniProt Q99PF4 24-228) (domain or fragment)

Kd [2]: > 100 µM
Kd [3]: 2.9 µM
dH [3]: 7.08 kcal/mol
stoichiometry N [3]: 0.88
B1: mouse cadherin-23 EC1+2 (domain or fragment)
chain: MQVNRLPFFTNHFFDTYLLISEDTPVGSSVTQLLARDMDNDPLVFGVSGEEASRFFAVEPDTGVVWLRQPLDRETKSEFTVEFSVSDHQGVITRKVNIQVGDVNDNAPTFHNQPYSVRIPENTPVGTPIFIVNATDPDLGAGGSVLYSFQPPSPFFAIDSARGIVTVIQELDYEVTQAYQLTVNATDQDKTRPLSTLANLAIIITD

Kd [3]: > 30 µM
B2: mouse cadherin-23 EC1+2 L145G (domain or fragment)
chain: B1 chain with L146G

binding result [4]: binds
B3: mouse cadherin-23 EC1+2 S47P (domain or fragment)
chain: B1 chain with S48P
